pKd: −log10 of the molar value.

Sequence of GGA1 VHS (human) (Q9UJY5 17-147): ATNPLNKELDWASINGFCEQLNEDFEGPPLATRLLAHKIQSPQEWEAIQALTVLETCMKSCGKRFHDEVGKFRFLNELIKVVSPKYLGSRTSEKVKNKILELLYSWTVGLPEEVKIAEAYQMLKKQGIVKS
Sequence of DAXX_(606–616), phosphomimetic (E) (Q9UER7 whole entry, looked up, tested part not stated): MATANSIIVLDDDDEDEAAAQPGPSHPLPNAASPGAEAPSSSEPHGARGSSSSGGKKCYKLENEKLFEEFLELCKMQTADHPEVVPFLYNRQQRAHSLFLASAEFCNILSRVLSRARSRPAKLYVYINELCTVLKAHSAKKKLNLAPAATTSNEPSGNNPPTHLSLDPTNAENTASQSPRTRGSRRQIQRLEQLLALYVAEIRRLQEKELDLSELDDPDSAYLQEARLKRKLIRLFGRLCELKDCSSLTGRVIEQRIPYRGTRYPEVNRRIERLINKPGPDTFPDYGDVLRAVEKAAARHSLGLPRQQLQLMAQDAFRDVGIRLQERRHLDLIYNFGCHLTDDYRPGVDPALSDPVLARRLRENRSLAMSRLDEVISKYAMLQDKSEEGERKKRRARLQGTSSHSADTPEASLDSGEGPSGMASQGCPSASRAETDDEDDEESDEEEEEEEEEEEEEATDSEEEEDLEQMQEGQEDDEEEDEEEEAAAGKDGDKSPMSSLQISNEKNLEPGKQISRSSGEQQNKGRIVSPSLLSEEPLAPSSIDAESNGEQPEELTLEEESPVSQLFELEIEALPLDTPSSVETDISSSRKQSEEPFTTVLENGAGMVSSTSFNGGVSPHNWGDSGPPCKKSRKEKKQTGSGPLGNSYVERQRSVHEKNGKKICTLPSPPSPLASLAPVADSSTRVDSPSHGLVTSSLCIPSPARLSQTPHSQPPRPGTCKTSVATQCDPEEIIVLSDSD
Sequence of DAXX_(606–616), phosphorylated (pS) (Q9UER7 whole entry, looked up, tested part not stated): as above
Sequence of DAXX_(606–616), wild‐type (Q9UER7 whole entry, looked up, tested part not stated): as above

In the first test the target is GABARAPL2 (human) (UniProt P60520). The test can be described thus: fluorescence polarisation.
Sequence of GABARAPL2 (human) (P60520 whole entry): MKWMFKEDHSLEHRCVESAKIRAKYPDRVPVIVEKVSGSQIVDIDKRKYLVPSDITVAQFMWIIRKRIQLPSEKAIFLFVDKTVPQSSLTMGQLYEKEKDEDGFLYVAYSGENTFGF
The pKd is the negative decadic logarithm of the Kd, by convention in mol/L. With “ATG4C_(444–458), phosphorylated (pS) (from UniProt Q96DT6 444-458) (peptide)”, the pKd was 7.00.
Consider “DLGAP4_(907–922), phosphomimetic (E) (from UniProt Q9Y2H0 907-922) (peptide)”, for which the pKd was 3.59.
With “DLGAP4_(907–922), phosphorylated (pS) (from UniProt Q9Y2H0 907-922) (peptide)”, the pKd is 3.82.
Substance “DLGAP4_(907–922), wild‐type (from UniProt Q9Y2H0 907-922) (peptide)” showed a pKd of 3.76.

The target in the next test is PDCD6IP Alix V domain (human). The test can be described thus: fluorescence polarisation; displacement of a FITC-labelled probe peptide (5 nM in the measurement) from the protein domain (1-2 fold over the probe's KD) by a dilution series of unlabelled peptide; room temperature; 50 mM sodium phosphate pH 7.4; KD calculated from the displacement curve; for KPNA4 ARM one probe for each pocket.
Take “FOXK1_(212–227), phosphomimetic (E) (from UniProt P85037 212-227) (peptide)”: the pKd is 4.89.
As for “FOXK1_(212–227), phosphorylated (pS) (from UniProt P85037 212-227) (peptide)”, the pKd is 4.89.
For the substance “FOXK1_(212–227), wild‐type (from UniProt P85037 212-227) (peptide)”, the pKd is 4.60.
Still for that read-out and setting: to “OTUD5_(507–522), phosphomimetic (E) (from UniProt Q96G74 507-522) (peptide)” belongs 4.06.
Consider “OTUD5_(507–522), phosphorylated (pS) (from UniProt Q96G74 507-522) (peptide)”, for which the pKd was 3.94.
As to “OTUD5_(507–522), wild‐type (from UniProt Q96G74 507-522) (peptide)”, the pKd was 4.17.

For another test, the target named is MAP1LC3B (human) (UniProt Q9GZQ8). Described as above.
“ATG4C_(444–458), phosphorylated (pS) (from UniProt Q96DT6 444-458) (peptide)”: the negative logarithm of the Kd (pKd) was 5.72.
With “TPD52L2_(91–106), phosphorylated (pS) (from UniProt O43399 91-106) (peptide)”, the pKd is 4.21.
On the same count and under the same terms, to “TPD52L2_(91–106), wild‐type (from UniProt O43399 91-106) (peptide)” belongs 3.12.

For another test, the target named is RANBP2 RanBD4 (human). Described as above.
Consider “DHX38_(260–275), phosphorylated (pS) (from UniProt Q92620 260-275) (peptide)”, for which the pKd is 3.78.
With “DHX38_(260–275), wild‐type (from UniProt Q92620 260-275) (peptide)”, the negative-log Kd (pKd) is 2.82.
Regarding “INTS6_(145–159), phosphomimetic (E) (from UniProt Q9UL03 145-159) (peptide)”, the pKd was 2.97.
As for “INTS6_(145–159), phosphorylated (pS) (from UniProt Q9UL03 145-159) (peptide)”, the pKd is 3.13.
In the case of “INTS6_(145–159), wild‐type (from UniProt Q9UL03 145-159) (peptide)”, the pKd is 3.48.

The target in another test is KPNA4 ARM (human). The test is described as above.
Regarding “CDC25A_(114–125), phosphomimetic (E) (from UniProt P30304 114-125) (peptide)”, the KD, major pocket is 0.75 µM and the KD, minor pocket is 2.3 µM.
For the substance “CDC25A_(114–125), wild‐type (from UniProt P30304 114-125) (peptide)”, the KD, major pocket was 8.8 µM and the KD, minor pocket was 0.2 µM.
For the substance “RANBP3_(114–129), phosphomimetic (E) at p + 5 (from UniProt Q9H6Z4 114-129) (peptide)”, the KD, major pocket is 0.8 µM and the KD, minor pocket was 61 µM.
In the case of “RANBP3_(114–129), phosphomimetic (E) at p + 6 (from UniProt Q9H6Z4 114-129) (peptide)”, the KD, major pocket was 0.14 µM and the KD, minor pocket was 80 µM.
For “RANBP3_(114–129), phosphorylated at p + 5 (from UniProt Q9H6Z4 114-129) (peptide)” the same measures were 1.13 µM and 167 µM.
In the case of “RANBP3_(114–129), phosphorylated at p + 6 (from UniProt Q9H6Z4 114-129) (peptide)”, the KD, major pocket is 0.22 µM and the KD, minor pocket is 20 µM.
Consider “RANBP3_(114–129), wild‐type (from UniProt Q9H6Z4 114-129) (peptide)”, for which the KD, major pocket was 0.15 µM and the KD, minor pocket was 68 µM.
As to “SQSTM1_(258–272), phosphomimetic (E) (from UniProt Q13501 258-272) (peptide)”, the KD, major pocket was 5.3 µM and the KD, minor pocket was 41 µM.
Consider “SQSTM1_(258–272), phosphorylated (pS) (from UniProt Q13501 258-272) (peptide)”, for which the KD, major pocket is 50 µM and the KD, minor pocket is 248 µM.
Consider “SQSTM1_(258–272), wild‐type (from UniProt Q13501 258-272) (peptide)”, for which the KD, major pocket is 0.24 µM and the KD, minor pocket is 14 µM.
Take “pS116 CDC25A_(114–125) (from UniProt P30304 114-125) (peptide)”: the KD, major pocket is 0.63 µM and the KD, minor pocket was 2.8 µM.

The target of the next test is AP2 μ2 (human). The description is as above.
With “BAIAPL1_(392–407), phosphomimetic (E) (from UniProt Q9UHR4 392-407) (peptide)”, the pKd is 6.31.
In the case of “BAIAPL1_(392–407), phosphorylated (pS) (from UniProt Q9UHR4 392-407) (peptide)”, the pKd is 6.03.
Same read-out and setting: the same measure for “BAIAPL1_(392–407), wild‐type (from UniProt Q9UHR4 392-407) (peptide)”: 5.89; for “PCBP1_(179–194), phosphomimetic (E) (from UniProt Q15365 179-194) (peptide)”: 5.69; for “PCBP1_(179–194), phosphorylated (pS) (from UniProt Q15365 179-194) (peptide)”: 6.17.
The same measure, in the same setting: the same measure for “PCBP1_(179–194), wild‐type (from UniProt Q15365 179-194) (peptide)”: 5.43.

Another test concerns the target GGA1 VHS (human) (UniProt Q9UJY5). The description is as above.
With “JUN_(59–73), phosphorylated (pS) (from UniProt P05412 59-73) (peptide)”, the negative-log Kd (pKd) was 2.72.
Consider “JUN_(59–73), wild‐type (from UniProt P05412 59-73) (peptide)”, for which the negative logarithm of the Kd (pKd) was 3.33.
For the substance “RNF11_(6–21), phosphomimetic (E) (from UniProt Q9Y3C5 6-21) (peptide)”, the pKd is 3.00.
As to “RNF11_(6–21), phosphorylated (pS) (from UniProt Q9Y3C5 6-21) (peptide)”, the negative logarithm of the Kd (pKd) is 4.51.
For the substance “RNF11_(6–21), wild‐type (from UniProt Q9Y3C5 6-21) (peptide)”, the negative-log Kd (pKd) is 3.38.

The target in the next test is SNX27 PDZ (human) (UniProt Q96L92). The test is described as above.
Regarding “CDC25C_(30–44), phosphomimetic (E) (from UniProt P30307 30-44) (peptide)”, the pKd is 3.17.
Still for that read-out and setting: the same measure for “CDC25C_(30–44), phosphorylated (pS) (from UniProt P30307 30-44) (peptide)”: 3.40; for “CDC25C_(30–44), wild‐type (from UniProt P30307 30-44) (peptide)”: 3.95; for “DAXX_(606–616), phosphomimetic (E) (from UniProt Q9UER7 606-616) (peptide)”: 4.64.
In the case of “DAXX_(606–616), phosphorylated (pS) (from UniProt Q9UER7 606-616) (peptide)”, the pKd was 4.02.
Regarding “DAXX_(606–616), wild‐type (from UniProt Q9UER7 606-616) (peptide)”, the pKd is 3.52.

The target of the next test is TSG101 UEV (human) (UniProt Q99816). The test is described as above.
Sequence of TSG101 UEV (human) (Q99816 2-145): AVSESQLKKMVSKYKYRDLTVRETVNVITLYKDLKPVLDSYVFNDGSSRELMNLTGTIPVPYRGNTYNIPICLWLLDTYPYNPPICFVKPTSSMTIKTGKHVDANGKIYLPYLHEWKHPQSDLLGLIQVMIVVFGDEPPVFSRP
For “GJA1_(269–283), phosphomimetic (E) (from UniProt P17302 269-283) (peptide)”, the pKd was 3.94.
In the case of “GJA1_(269–283), phosphorylated (pS) (from UniProt P17302 269-283) (peptide)”, the negative logarithm of the Kd (pKd) was 3.68.
Still for that read-out and setting: the same measure for “GJA1_(269–283), wild‐type (from UniProt P17302 269-283) (peptide)”: 3.63; for “PDCD6IP_(711–725), wild‐type (from UniProt Q8WUM4 711-725) (peptide)”: 4.80.
Same read-out and setting: the same measure for “PIP4P2_(17–32), phosphomimetic (E) (from UniProt Q8N4L2 17-32) (peptide)”: 4.74; for “PIP4P2_(17–32), phosphorylated (pS) (from UniProt Q8N4L2 17-32) (peptide)”: 4.80; for “PIP4P2_(17–32), wild‐type (from UniProt Q8N4L2 17-32) (peptide)”: 4.85.
